B1: glmS ribozyme (parent)
chain: AUAAAAGCGCCAGAACUACAGAAAUGUAGUUGACGAGGAGGAGGUUUAUCGAAUUUUCGGCGGAUGCCUCCAAA

± gives the standard error. This sample holds only a part of the variants without activity.

What all share (conditions): with glucosamine-6-phosphate
The variants in series [1] derive from B1. As to the kind of experiment: self-cleavage kobs at 160 uM GlcN6P; higher = faster cleavage; RNA array. An outline of the steps:
(§1)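 Over ~14 h at 37 °C, tiles were imaged as glucosamine-6-phosphate (40 μM to 10 mM) in HEPES/KCl/Mg(OAc)2 buffer flowed across sequenced MiSeq chips. The chips carried barcoded ribozyme variants transcribed in situ by E. coli RNA polymerase and tracked with a hybridised Cy3 probe. After normalisation to baseline and to non-cleaving reference variants, one- or two-exponential decay fits of per-tile medians gave kobs. kcat and KM followed from weighted Michaelis–Menten fits across concentrations.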

The variants in series [2] derive from B1. The series can be described thus: self-cleavage kobs at 640 uM GlcN6P; higher = faster cleavage; RNA array. An outline of the steps: as §1
Series [3] covers variants of B1. The series can be described thus: self-cleavage kobs at 10000 uM GlcN6P; higher = faster cleavage; RNA array. An outline of the steps: as §1
In series [4] the parent is B1. As to the kind of experiment: self-cleavage kobs at 40 uM GlcN6P; higher = faster cleavage; RNA array. An outline of the steps:
as §1

Variants of B1 are the subject of series [5]. The series can be described thus: self-cleavage kobs at 2500 uM GlcN6P; higher = faster cleavage; RNA array. The gist of the method: as §1

Turning to A39U G59U, the “self-cleavage kobs at 160 uM GlcN6P” value with glucosamine-6-phosphate [1] is less than 1e-05 s⁻¹. For the same variant, in the series with glucosamine-6-phosphate [2], the “self-cleavage kobs at 640 uM GlcN6P” value is less than 1e-05 s⁻¹. For the same variant, the “self-cleavage kobs at 10000 uM GlcN6P” value with glucosamine-6-phosphate [3] came to 3.61e-05 ± 1.4e-05 s⁻¹.
For A15G G38A A42G, the “self-cleavage kobs at 40 uM GlcN6P” value in the series with glucosamine-6-phosphate [4] is less than 1e-05 s⁻¹. The “self-cleavage kobs at 160 uM GlcN6P” value in the series with glucosamine-6-phosphate [1] was less than 1e-05 s⁻¹. The “self-cleavage kobs at 640 uM GlcN6P” value with glucosamine-6-phosphate [2] was less than 1e-05 s⁻¹.
On to G37U G63A, for which, in the series with glucosamine-6-phosphate [4], the “self-cleavage kobs at 40 uM GlcN6P” value is less than 1e-05 s⁻¹. Besides, in the series with glucosamine-6-phosphate [1], the “self-cleavage kobs at 160 uM GlcN6P” value is less than 1e-05 s⁻¹. In addition, in the series with glucosamine-6-phosphate [2], the “self-cleavage kobs at 640 uM GlcN6P” value is less than 1e-05 s⁻¹. Moreover, the “self-cleavage kobs at 2500 uM GlcN6P” value with glucosamine-6-phosphate [5] was less than 1e-05 s⁻¹. The “self-cleavage kobs at 10000 uM GlcN6P” value with glucosamine-6-phosphate [3] is less than 1e-05 s⁻¹.
On to C11A G44A, for which the “self-cleavage kobs at 40 uM GlcN6P” value with glucosamine-6-phosphate [4] is less than 1e-05 s⁻¹. The “self-cleavage kobs at 640 uM GlcN6P” value with glucosamine-6-phosphate [2] is less than 1e-05 s⁻¹. Further, the “self-cleavage kobs at 2500 uM GlcN6P” value with glucosamine-6-phosphate [5] is less than 1e-05 s⁻¹. Further, in the series with glucosamine-6-phosphate [3], the “self-cleavage kobs at 10000 uM GlcN6P” value is less than 1e-05 s⁻¹.
C8A C34G A52U C67U: the “self-cleavage kobs at 40 uM GlcN6P” value with glucosamine-6-phosphate [4] was less than 1e-05 s⁻¹. The “self-cleavage kobs at 10000 uM GlcN6P” value with glucosamine-6-phosphate [3] is less than 1e-05 s⁻¹.
Consider G29A A33G A36C U45C, for which, in the series with glucosamine-6-phosphate [4], the “self-cleavage kobs at 40 uM GlcN6P” value was less than 1e-05 s⁻¹.
Same read-out and setting: to C10G A52C U56A C71U belongs less than 1e-05 s⁻¹; to C11G G13A G32U, less than 1e-05 s⁻¹.
For C50G C68G, the “self-cleavage kobs at 40 uM GlcN6P” value in the series with glucosamine-6-phosphate [4] was found to be 0.00159 ± 0.00078 s⁻¹. In addition, the “self-cleavage kobs at 640 uM GlcN6P” value with glucosamine-6-phosphate [2] was determined as 0.000121 ± 1.1e-05 s⁻¹. Also, in the series with glucosamine-6-phosphate [5], the “self-cleavage kobs at 2500 uM GlcN6P” value turned out to be 0.000142 ± 1.2e-05 s⁻¹. In the series with glucosamine-6-phosphate [3], the “self-cleavage kobs at 10000 uM GlcN6P” value turned out to be 6.8e-05 ± 4.8e-06 s⁻¹.
As for A6U G40U U56A, in the series with glucosamine-6-phosphate [4], the “self-cleavage kobs at 40 uM GlcN6P” value is less than 1e-05 s⁻¹. For the same variant, the “self-cleavage kobs at 640 uM GlcN6P” value with glucosamine-6-phosphate [2] was less than 1e-05 s⁻¹.
As to A6G A48U, the “self-cleavage kobs at 40 uM GlcN6P” value with glucosamine-6-phosphate [4] was less than 1e-05 s⁻¹. For the same variant, in the series with glucosamine-6-phosphate [1], the “self-cleavage kobs at 160 uM GlcN6P” value was less than 1e-05 s⁻¹. Also, in the series with glucosamine-6-phosphate [2], the “self-cleavage kobs at 640 uM GlcN6P” value was less than 1e-05 s⁻¹. Further, in the series with glucosamine-6-phosphate [5], the “self-cleavage kobs at 2500 uM GlcN6P” value is less than 1e-05 s⁻¹. Besides, the “self-cleavage kobs at 10000 uM GlcN6P” value with glucosamine-6-phosphate [3] is less than 1e-05 s⁻¹.
Regarding U54A G60C, the “self-cleavage kobs at 40 uM GlcN6P” value with glucosamine-6-phosphate [4] was less than 1e-05 s⁻¹. In addition, in the series with glucosamine-6-phosphate [2], the “self-cleavage kobs at 640 uM GlcN6P” value was less than 1e-05 s⁻¹. Further, the “self-cleavage kobs at 10000 uM GlcN6P” value with glucosamine-6-phosphate [3] is less than 1e-05 s⁻¹.
As for G7C U30G, in the series with glucosamine-6-phosphate [4], the “self-cleavage kobs at 40 uM GlcN6P” value is less than 1e-05 s⁻¹. For the same variant, the “self-cleavage kobs at 160 uM GlcN6P” value with glucosamine-6-phosphate [1] was less than 1e-05 s⁻¹. Besides, in the series with glucosamine-6-phosphate [2], the “self-cleavage kobs at 640 uM GlcN6P” value is less than 1e-05 s⁻¹. The “self-cleavage kobs at 2500 uM GlcN6P” value with glucosamine-6-phosphate [5] is less than 1e-05 s⁻¹. Moreover, the “self-cleavage kobs at 10000 uM GlcN6P” value with glucosamine-6-phosphate [3] was less than 1e-05 s⁻¹.
As to C8A G35C C61G, the “self-cleavage kobs at 160 uM GlcN6P” value with glucosamine-6-phosphate [1] is less than 1e-05 s⁻¹. In addition, the “self-cleavage kobs at 640 uM GlcN6P” value in the series with glucosamine-6-phosphate [2] is less than 1e-05 s⁻¹. In addition, in the series with glucosamine-6-phosphate [5], the “self-cleavage kobs at 2500 uM GlcN6P” value was less than 1e-05 s⁻¹.
As for U47G U56G C70A, the “self-cleavage kobs at 40 uM GlcN6P” value with glucosamine-6-phosphate [4] was 7.34e-05 ± 2.5e-05 s⁻¹. In addition, in the series with glucosamine-6-phosphate [1], the “self-cleavage kobs at 160 uM GlcN6P” value amounted to 0.000192 ± 3.8e-05 s⁻¹. Further, the “self-cleavage kobs at 640 uM GlcN6P” value in the series with glucosamine-6-phosphate [2] was 6.47e-05 ± 1.3e-05 s⁻¹. The “self-cleavage kobs at 2500 uM GlcN6P” value with glucosamine-6-phosphate [5] came to 7.39e-05 ± 1.8e-05 s⁻¹. Also, the “self-cleavage kobs at 10000 uM GlcN6P” value with glucosamine-6-phosphate [3] turned out to be 6.01e-05 ± 1.4e-05 s⁻¹.
Consider G9A G13A G43U G60A, for which, in the series with glucosamine-6-phosphate [4], the “self-cleavage kobs at 40 uM GlcN6P” value was less than 1e-05 s⁻¹.
Still for that read-out and setting: the value for G7U G29A U30C C34U U45A was less than 1e-05 s⁻¹.
For A12U G38C A53G U55C C67G, the “self-cleavage kobs at 160 uM GlcN6P” value with glucosamine-6-phosphate [1] is less than 1e-05 s⁻¹. Further, the “self-cleavage kobs at 640 uM GlcN6P” value with glucosamine-6-phosphate [2] is less than 1e-05 s⁻¹. Besides, in the series with glucosamine-6-phosphate [5], the “self-cleavage kobs at 2500 uM GlcN6P” value was less than 1e-05 s⁻¹.
With G32U G38C, the “self-cleavage kobs at 40 uM GlcN6P” value with glucosamine-6-phosphate [4] was less than 1e-05 s⁻¹.
In the case of G43A C58U, the “self-cleavage kobs at 160 uM GlcN6P” value with glucosamine-6-phosphate [1] was less than 1e-05 s⁻¹. The “self-cleavage kobs at 640 uM GlcN6P” value with glucosamine-6-phosphate [2] is less than 1e-05 s⁻¹. Moreover, in the series with glucosamine-6-phosphate [3], the “self-cleavage kobs at 10000 uM GlcN6P” value is less than 1e-05 s⁻¹.
C10A U30A G35U G43U: the “self-cleavage kobs at 160 uM GlcN6P” value with glucosamine-6-phosphate [1] is less than 1e-05 s⁻¹.
On to C34U G38C C67U, for which the “self-cleavage kobs at 40 uM GlcN6P” value with glucosamine-6-phosphate [4] is less than 1e-05 s⁻¹. The “self-cleavage kobs at 10000 uM GlcN6P” value with glucosamine-6-phosphate [3] was less than 1e-05 s⁻¹.
Regarding C11U U65C, the “self-cleavage kobs at 160 uM GlcN6P” value in the series with glucosamine-6-phosphate [1] is less than 1e-05 s⁻¹.
Consider C16U G29C C50G, for which, in the series with glucosamine-6-phosphate [1], the “self-cleavage kobs at 160 uM GlcN6P” value came out at 0.000111 ± 3.4e-05 s⁻¹. For the same variant, the “self-cleavage kobs at 2500 uM GlcN6P” value with glucosamine-6-phosphate [5] was 6.6e-05 ± 2.7e-05 s⁻¹.
As for U46C U54A, the “self-cleavage kobs at 160 uM GlcN6P” value with glucosamine-6-phosphate [1] turned out to be 0.000326 ± 8.6e-05 s⁻¹. Also, the “self-cleavage kobs at 640 uM GlcN6P” value with glucosamine-6-phosphate [2] turned out to be 0.00148 ± 0.00038 s⁻¹.

These data come from the supplement of paper PMC7125110.
